B1: MLL5 (parent)
chain: HDDGYMICCDKCSVWQHIDCMGID
B2: C19orf51 (parent)
chain: FAPQTGARPSETFARFCKSQESAL

Variants of: B1
Experiment: protein stability index of a GFP-peptide fusion (GPS, HEK-293T) (PSI 1-6); higher = more stable
Conditions: c terminus: a fixed tail appended
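Note: lentivirally expressed fusions sorted by FACS into six bins by GFP to DsRed ratio, PSI derived from sequencing read proportions per bin multiplied by bin number.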

Variant | protein stability index
H1F | 1.66
H1V | 2.61
H1Y | 3.85
H1W | 2.63
H1L | 2.47
H1R | 2.29
H1K | 2.95
H1N | 2.73
H1G | 2.25
H1P | 1.86
H1D | 2.83
H1M | 1.57
H1I | 1.98
H1S | 2.81
H1E | 2.5
H1Q | 2.24
H1C | 2.1
H1A | 2.42
H1T | 2.19
Y5P | 2.9
Y5T | 3.96
Y5Q | 3.19
Y5F | 1.74
Y5E | 3.39
Y5R | 3.42
Y5N | 3.3
Y5C | 3.04

Variant | protein stability index
Y5W | 2.03
Y5I | 2.98
Y5G | 3.53
Y5S | 2.84
Y5L | 2.78
Y5V | 2.96
Y5M | 2.83
Y5A | 3.46
Y5K | 3.53
Y5D | 3.14
Y5H | 3.79
D3H | 2.01
D3M | 1.69
D3T | 2.41
D3V | 2.75
D3W | 1.88
D3G | 2.47
D3L | 1.01
D3S | 1.69
D3I | 1.63
D3K | 1.88
D3P | 2.65
D3F | 1.53
D3E | 2.95
D3Q | 2.43
D3N | 2.09
D3Y | 1.91

Variant | protein stability index
D3C | 2.06
D3A | 2.13
D3R | 2.02
G4F | 1.94
G4S | 2.38
G4N | 2.05
G4Q | 2.2
G4H | 2.29
G4T | 2.04
G4Y | 2.48
G4E | 2.99
G4R | 2.73
G4A | 2.04
G4D | 2.61
G4P | 2.69
G4I | 1.51
G4V | 2.1
G4L | 1.64
G4K | 2.16
G4W | 2.56
G4C | 2.53
G4M | 1.74
D2Q | 2.04
D2A | 1.76
D2C | 1.89
D2N | 1.71
D2S | 2.16

Variant | protein stability index
D2H | 2.87
D2L | 3.26
D2W | 1.84
D2F | 2.23
D2P | 2.16
D2K | 2.69
D2R | 2.02
D2M | 1.92
D2I | 2.87
D2E | 2.53
D2G | 2.05
D2V | 2.02
D2Y | 1.93
D2T | 2.99
M6E | 2.79
M6I | 2.65
M6D | 2.96
M6K | 2.43
M6G | 2.4
M6H | 4.05
M6A | 3.37
M6F | 2.22
M6L | 2.59
M6C | 3.2

Variants of: B2
Experiment: as above
Conditions: c terminus: a fixed tail appended

Variant | protein stability index
K18N | 1.3
K18Y | 1.99
K18L | 2.2
K18H | 2.19
K18D | 1.1
K18I | 2.29
K18V | 2.45
K18P | 2.61
K18Q | 1.81
K18G | 2.56
K18T | 2.6
K18C | 2.44
K18E | 1.92
K18S | 2.39
E11Y | 3.29
E11I | 1.72
E11F | 3.67
E11D | 1.85
E11A | 1.55
E11R | 2.15
E11L | 2.27
E11K | 1.03
E11N | 3.64
E11M | 3.05
E11H | 2.47
E11C | 2.86

Variant | protein stability index
E11T | 1.96
E11G | 1.54
E11S | 3.19
E21P | 1.88
E21K | 1.85
E21M | 2.35
E21I | 1.97
E21H | 3.63
E21C | 1.97
E21R | 4.11
E21N | 1.79
E21D | 2.04
E21Q | 2.79
E21Y | 2.22
E21A | 2.86
E21G | 3
E21W | 3.29
E21F | 1.76
P9T | 3.29
P9N | 2.23
P9W | 1.65
P9Y | 3.62
P9Q | 2.77
P9R | 2.62
C17L | 1.42
C17D | 1.68

Variant | protein stability index
C17A | 2.9
C17P | 1.9
C17Q | 1.35
C17V | 2.31
C17M | 3.12
C17E | 1.09
C17G | 3.94
C17Y | 2.92
C17N | 2.79
C17H | 1.2
C17W | 3
C17I | 2.98
C17S | 1.74
S10R | 2.34
S10C | 2.34
S10L | 1.58
S10T | 2.25
S10K | 2.62
S10A | 2.32
S10Q | 1.96
S10N | 1.72
S10E | 1.43
S10G | 2.46
S10H | 2.76
S10F | 2.11
S10I | 2.32

Variant | protein stability index
S19I | 2.35
S19H | 4.27
S19C | 3.45
S19K | 2.35
S19P | 1.77
S19E | 1.1
S19D | 2.2
S19N | 1.31
S19G | 2.82
S19Q | 1.43
S19W | 1.75
S19A | 2.85
S19R | 5.04
S19T | 1.66
L24A | 3.59
L24Q | 1.23
L24R | 4.53
L24C | 3.32
L24F | 3.1
L24N | 2.58
L24P | 1.23
L24H | 1.83
L24E | 3.37
L24T | 2.27
L24D | 1.88
L24G | 2.81

Variant | protein stability index
L24M | 1.56
L24Y | 3.96
L24K | 2.02
Q20F | 1.73
Q20M | 1.72
Q20T | 3.01
Q20A | 2.13
Q20P | 2.65
Q20I | 2.92
Q20G | 1.84
Q20Y | 2.31
Q20V | 1.73
Q20N | 1.76
Q20H | 1.89
Q20R | 4.59
Q20D | 2.51
Q20E | 2.48
Q20K | 1.99
Q20C | 3
Q20L | 1.65
T12D | 1.99
T12V | 2.77
T12H | 1.87
T12N | 2.66
T12F | 2.96
T12M | 2.29

Variant | protein stability index
T12E | 1.4
T12Y | 2.48
T12P | 1.82
T12R | 2.39
T12Q | 1.35
T12L | 2.87
T12G | 1.46
F16I | 1.89
F16D | 1.77
F16G | 2.38
F16S | 2.79
F16Q | 1.54
F16R | 1.4
F16T | 2.52
F16L | 3.42
F16A | 2.44
F16H | 2.07
F16K | 2.31
F16E | 1.54
F16C | 2.62
F16N | 1.93
S22L | 2.08
S22E | 1.58
S22Y | 1.93
S22G | 3.57
S22P | 3.4

Variant | protein stability index
S22C | 2.31
S22K | 1.33
S22T | 1.88
S22V | 1.8
S22F | 2.18
S22R | 1.51
S22I | 3.24
S22H | 1.98
S22W | 1
S22D | 2.04
R15Q | 1.16
R15H | 1.69
R15V | 3.42
R15S | 1.08
R15F | 1.72
R15D | 1.27
R15E | 2.65
R15N | 3.83
R15K | 2.48
R15C | 3.88
R15A | 2.94
R15T | 2.14
R15G | 2.37
R15L | 2.84
R15I | 2.75
F13Q | 2.12

Variant | protein stability index
F13P | 1.07
F13D | 1.86
F13N | 2.49
F13Y | 1.49
F13M | 1.92
F13A | 1.89
F13E | 1.98
F13R | 1.94
F13T | 1.82
F13G | 2
F13L | 2.54
F13I | 1.7
F13S | 1.41
F13H | 1.48
F13K | 2.31
F13C | 3.95
F13V | 2.92
A23W | 2.29
A23K | 1.75
A23I | 1.89
A23F | 2.44
A23G | 2.32
A23L | 2.84
A23C | 1.55
A23P | 2.46
A23T | 2.07

Variant | protein stability index
A23R | 3.52
A23Q | 1.82
A23N | 3.57
A23M | 2.11
A23H | 3.08
A23V | 1.68
A14I | 3.27
A14S | 1.89
A14V | 2.17
A14G | 1.74
A14N | 1.44
A14R | 1.82
A14Y | 3.2
A14M | 3.45
A14E | 1.77
A14D | 1.69
A14F | 1.33
A14C | 1.69
A14Q | 2.63
A14T | 2.09
A14L | 2.12
